Source: US20220396632A1

T1: Scrambled Y42,52,63(SO3) PSGL-1(42-62) biotin peptide
T1 sequence (peptide, sulfotyrosine at peptide positions 1, 11 and 22; C-terminal Lys-biotin): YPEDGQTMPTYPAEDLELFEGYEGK


Target: T1, Scrambled Y42,52,63(SO3) PSGL-1(42-62) biotin peptide
Test: ELISA, immobilized biotin peptide

| A450nm, 20 nM mAb [A450nm] | Binder |
| --- | --- |
| 0.37 | 09B09 (antibody, IgG4, V domains shown) VH: EVKLLESGGGLVQPGGSLRLSCAASGITFSTYAMMWVRQAPGKGLEWVSGISGSGASRYYADSVKGRFTISRDNSKNMLYLQMNSLRAEDTAVYYCAKKVLGRRKQYFDDWGQGTLVTVSS VL: DIVMTQSPLSLPVTPGEPASISCRSSQSLLHSNGYNYLDWYLQRPGQSPQLLIYLGSHRASGVPDRFSGSGSGTEHTLKITTVAAEDVGVYYCMQALQSPPTFGQGTRLDIK |
| 0.09 | 09D11 (antibody, IgG4, V domains shown) VH: QVQLVESGGGFIQPGGSLRLSCAASGLTFSNYAMTWVRQAPGKGLEWVSTISGGGGNTYYTDSVKGRFTISRDNSKNTLYLQMNSLKAEDTAVYRCAKGLAAALFDYWGQGTLVTVSS VL: DIVLTQSPDSLPVTPGEPASISCRSSRSLLHSNGHNFLAWYLQKPGQSPHLLIYLGSNRASGVPDRFSGSGSGTDFTLKISRVEAEDVGIYYCMQALQTPITFGQGTRLDIK |
| 0.12 | 03D01 (antibody, IgG4, V domains shown) VH: EVQLVQSGGGLVQPGGSLRLSCAATGFTVSRNYMTWVREAPGKGLEWVAGIYKSGTTSYIESVKGRFTISRDNSKNTLYLEMSRLRAEDTAVYYCAKSTSTWGQGTQVTVSS VL: DVVMTQSPVSLPVTLGQPASISCRSSRNLLYSNGNTYLNWFHQRPGQSPRRLIYKVSNQDSGVPDRFSGSGSGTDFTLKISRVEAEDVGVYYCMQGTHWPTTFGQGTRLEIK |
| 0.13 | 01A04 (antibody, IgG4, V domains shown) VH: EVQLVQSGAEVKKPGASVKVSCKASGYTFTSYYIHWVRQAPGQGLEWMGIIRPSGGSTSYAQKFQGRVTMTRDTSTSTVYMELSSLRSEDTAMYYCARVGVGSFDYWGQGTLVTVSS VL: DIQMTQSPSTLSASVGDRVTITCRASQSVSNWLAWYQQKPGKAPKLLIYKASSLESGVPSRFSGSGSGTEFTLTISSLQPDDFATYYCQWFRTFGPGTKVDIK |
